Measured values from patent US20260167699A1 (Chugai, published 2026).
Like-named read-outs stand apart in the source and are kept apart here.

T1: FcγRIIb extracellular domain with C-terminal His tag (human, UniProt P31994 43-217)
T1 construct: extracellular domain
T1 sequence: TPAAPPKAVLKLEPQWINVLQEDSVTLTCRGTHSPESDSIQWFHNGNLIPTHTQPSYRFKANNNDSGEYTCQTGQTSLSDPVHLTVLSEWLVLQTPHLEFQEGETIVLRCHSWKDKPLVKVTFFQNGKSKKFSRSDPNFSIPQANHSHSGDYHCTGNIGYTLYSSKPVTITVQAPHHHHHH

T2: FcγRIIa(H) extracellular domain with C-terminal His tag (human, UniProt P12318 34-217)
T2 construct: extracellular domain; polymorphic form H131; also called FcγRIIa H type
T2 sequence: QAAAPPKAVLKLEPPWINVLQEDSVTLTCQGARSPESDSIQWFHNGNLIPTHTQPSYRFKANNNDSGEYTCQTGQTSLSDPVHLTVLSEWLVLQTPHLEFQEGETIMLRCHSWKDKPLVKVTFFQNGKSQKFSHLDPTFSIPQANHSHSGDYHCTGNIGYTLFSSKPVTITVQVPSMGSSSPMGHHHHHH

T3: FcγRIIa(R) extracellular domain with C-terminal His tag (human, UniProt P12318 34-217)
T3 construct: extracellular domain; polymorphic form R131; also called FcγRIIa R type
T3 sequence: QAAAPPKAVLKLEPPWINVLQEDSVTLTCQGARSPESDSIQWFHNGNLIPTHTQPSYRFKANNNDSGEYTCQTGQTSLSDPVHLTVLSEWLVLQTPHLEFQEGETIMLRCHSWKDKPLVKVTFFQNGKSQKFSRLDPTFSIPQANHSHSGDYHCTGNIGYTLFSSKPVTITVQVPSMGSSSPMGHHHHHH


Key:
[1] = molecular target: T4, integrin αvβ3 (R & D Systems, Inc.) (UniProt P06756 31-992; P05106 27-718); assay: ELISA on coated integrin αvβ3 (1 µg/mL), detection with HRP-labeled anti-human IgG antibody
T4 construct: Bought protein
Protocol: The integrin αvβ3 binding of each molecule with the RGD (Arg-Gly-Asp) peptide inserted in the Fc region was assessed by ELISA (enzyme-Linked immunosorbent assay). Specifically, integrin αvβ3 (R & D Systems, Inc.) diluted to 1 μg/mL with a coating buffer (0.1 M NaHCO₃, pH 9.6) was added at a concentration of 100 μL/well to Nunc-Immuno™ MicroWell™ 96 well solid plates (Nunc) to immobilize the integrin αvβ3 to the plates. Each well of the antigen (integrin αvβ3)-immobilized plates was washed three times with 250 μL of a TBS solution containing 0.1 g/L calcium chloride and 0.1 g/L magnesium chloride (referred to as a TBS(+) solution). A TBS solution containing 5% BSA, 0.1 g/L calcium chloride, and 0.1 g/L magnesium chloride (referred to as a blocking solution) was added thereto at a concentration of 250 μL/well, and the plates were incubated at room temperature for 1 hour.
After removal of the blocking solution, each well was washed three times with a TBS(+) solution. […]
After removal of the HRP-labeled antibody solution, each well was washed three times with a TBS(+) solution. […] The absorbance of the solution whose reaction had been stopped was measured at a wavelength of 450 nm.

[2] = molecular target: T1, FcγRIIb extracellular domain with …; assay: SPR (Biacore), captured antibody, FcγR analyte, 1:1 Langmuir fit; naturally occurring IgG1 (not afucosylated)
Protocol: (§1) The antibody of interest was analyzed for its interaction with FcγR using a BiaCore™ T100, BiaCore™ A100, or BiaCore™ 4000 surface plasmon resonance system (GE Healthcare Japan Corp.). The running buffer used was HBS-EP+ (GE Healthcare Japan Corp.). The assay temperature was set to 25° C. The sensor chips used were: a chip prepared by immobilizing antigenic peptides onto Series S Sensor Chip CM5 (GE Healthcare Japan Corp.) by the amine coupling method; a chip prepared by immobilizing antigenic peptides biotinylated in advance onto Series S Sensor Chip SA (certified) (GE Healthcare Japan Corp.) through their interaction; a chip prepared by immobilizing protein L (ACTIGEN, BioVision, Inc.) onto Series S Sensor Chip CM5 (GE Healthcare Japan Corp.); and a chip prepared by immobilizing protein A/G (Thermo Fisher Scientific K.K.) onto Series S Sensor Chip CM5 (GE Healthcare Japan Corp.). The antibody of interest was captured onto any of these chips and allowed to interact with FcγR diluted with a running buffer. The antibody captured on the chip was washed off through the reaction of 10 mM glycine-HCl (pH 1.5) to regenerate the chip, which was repetitively used.

[3] = molecular target: T2, FcγRIIa(H) extracellular domain with …; assay: SPR (Biacore), captured antibody, FcγR analyte, 1:1 Langmuir fit
Protocol: as §1

[4] = molecular target: T5, FcγRIIIa(V) extracellular domain with C-terminal His tag (human, UniProt P08637 17-208); assay: as above
T5 construct: extracellular domain; polymorphic form V158; also called FcγRIIIa V type
Protocol: as §1

[5] = molecular target: T3, FcγRIIa(R) extracellular domain with …; assay: as above
Protocol: as §1

[6] = molecular target: T6, FcγRIa extracellular domain with C-terminal His tag (human, UniProt P12314 16-292); assay: as above
T6 construct: extracellular domain
Protocol: as §1

[7] = molecular target: T7, FcγRIIIa(F) extracellular domain with C-terminal His tag (human, UniProt P08637 17-208); assay: as above
T7 construct: extracellular domain; polymorphic form F158; also called FcγRIIIa F type
Protocol: as §1

[8] = molecular target: T2, FcγRIIa(H) extracellular domain with …; assay: as above; remark: listed apart in the source
Protocol: as §1

[9] = molecular target: T5, FcγRIIIa(V) extracellular domain with …; assay: as above; remark: listed apart in the source
Protocol: as §1

[10] = molecular target: T3, FcγRIIa(R) extracellular domain with …; assay: as above; remark: listed apart in the source
Protocol: as §1

[11] = molecular target: T6, FcγRIa extracellular domain with …; assay: as above; remark: listed apart in the source
Protocol: as §1

[12] = molecular target: T7, FcγRIIIa(F) extracellular domain with …; assay: as above; remark: listed apart in the source
Protocol: as §1

[13] = molecular target: T1, FcγRIIb extracellular domain with …; assay: SPR (Biacore), captured antibody, FcγR analyte, 1:1 Langmuir fit; afucosylated antibody (same sequence as G1d, other glycoform)
[14] = molecular target: T1, FcγRIIb extracellular domain with …; assay: SPR (Biacore), captured antibody, FcγR analyte, 1:1 Langmuir fit; afucosylated G1d; Table 8 reprint of Table 7
Protocol: as §1

[15] = molecular target: T8, FcγRIIIa extracellular domain with C-terminal His tag (allotype not given) (UniProt P08637 17-208, limits assumed); assay: SPR (Biacore), from the KD values of Table 5
T8 construct: extracellular domain; also called 3a
T8 sequence (P08637 other isoform, or with tags, fused parts or gaps limits assumed): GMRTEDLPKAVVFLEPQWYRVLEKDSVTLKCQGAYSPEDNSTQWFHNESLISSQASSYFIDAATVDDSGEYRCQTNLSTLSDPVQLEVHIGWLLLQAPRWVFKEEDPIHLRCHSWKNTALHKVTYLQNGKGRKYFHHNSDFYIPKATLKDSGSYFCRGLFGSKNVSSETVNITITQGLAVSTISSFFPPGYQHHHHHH

T5 sequence (P08637 other isoform, or with tags, fused parts or gaps): as the sequence (P08637 other isoform, or with tags, fused parts or gaps limits assumed) above, with F160V counted along it
T6 sequence (P12314 other isoform, or with tags, fused parts or gaps): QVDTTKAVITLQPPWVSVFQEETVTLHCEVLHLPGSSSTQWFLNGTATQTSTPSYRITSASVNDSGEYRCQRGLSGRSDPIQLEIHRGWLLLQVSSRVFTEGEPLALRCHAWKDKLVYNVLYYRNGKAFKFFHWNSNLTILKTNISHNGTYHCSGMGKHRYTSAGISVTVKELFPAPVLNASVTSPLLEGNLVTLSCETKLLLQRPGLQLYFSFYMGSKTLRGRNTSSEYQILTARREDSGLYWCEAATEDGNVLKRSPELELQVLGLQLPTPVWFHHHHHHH
T7 sequence (P08637 other isoform, or with tags, fused parts or gaps): as the sequence (P08637 other isoform, or with tags, fused parts or gaps limits assumed) above
T4 sequence (P06756 31-992, chain 1 of 2): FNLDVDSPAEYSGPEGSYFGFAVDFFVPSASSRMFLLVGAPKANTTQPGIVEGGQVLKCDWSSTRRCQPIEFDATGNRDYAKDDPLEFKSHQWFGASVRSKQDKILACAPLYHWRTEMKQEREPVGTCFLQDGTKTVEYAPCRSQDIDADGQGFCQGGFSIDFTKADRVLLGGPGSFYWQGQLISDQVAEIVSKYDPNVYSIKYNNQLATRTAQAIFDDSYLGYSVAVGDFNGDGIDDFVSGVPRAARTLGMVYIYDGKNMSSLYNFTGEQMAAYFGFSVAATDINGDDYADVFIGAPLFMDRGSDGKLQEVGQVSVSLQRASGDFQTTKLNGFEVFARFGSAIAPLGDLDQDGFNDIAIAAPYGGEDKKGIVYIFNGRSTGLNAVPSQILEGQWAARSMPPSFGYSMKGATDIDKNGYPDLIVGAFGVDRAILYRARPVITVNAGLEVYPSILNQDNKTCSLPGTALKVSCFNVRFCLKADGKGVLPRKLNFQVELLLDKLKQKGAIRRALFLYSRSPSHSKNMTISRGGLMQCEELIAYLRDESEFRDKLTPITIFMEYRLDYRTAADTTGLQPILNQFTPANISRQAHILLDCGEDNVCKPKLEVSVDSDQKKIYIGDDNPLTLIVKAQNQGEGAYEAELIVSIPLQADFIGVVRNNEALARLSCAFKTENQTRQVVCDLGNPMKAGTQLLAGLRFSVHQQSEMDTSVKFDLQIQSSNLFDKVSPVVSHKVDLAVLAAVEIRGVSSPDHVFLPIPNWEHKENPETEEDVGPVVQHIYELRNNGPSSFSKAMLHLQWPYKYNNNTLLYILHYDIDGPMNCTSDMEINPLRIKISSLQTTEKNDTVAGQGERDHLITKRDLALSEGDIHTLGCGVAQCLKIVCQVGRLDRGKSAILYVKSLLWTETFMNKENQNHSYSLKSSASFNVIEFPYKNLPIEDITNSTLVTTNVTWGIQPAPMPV
T4 sequence (P05106 27-718, chain 2 of 2): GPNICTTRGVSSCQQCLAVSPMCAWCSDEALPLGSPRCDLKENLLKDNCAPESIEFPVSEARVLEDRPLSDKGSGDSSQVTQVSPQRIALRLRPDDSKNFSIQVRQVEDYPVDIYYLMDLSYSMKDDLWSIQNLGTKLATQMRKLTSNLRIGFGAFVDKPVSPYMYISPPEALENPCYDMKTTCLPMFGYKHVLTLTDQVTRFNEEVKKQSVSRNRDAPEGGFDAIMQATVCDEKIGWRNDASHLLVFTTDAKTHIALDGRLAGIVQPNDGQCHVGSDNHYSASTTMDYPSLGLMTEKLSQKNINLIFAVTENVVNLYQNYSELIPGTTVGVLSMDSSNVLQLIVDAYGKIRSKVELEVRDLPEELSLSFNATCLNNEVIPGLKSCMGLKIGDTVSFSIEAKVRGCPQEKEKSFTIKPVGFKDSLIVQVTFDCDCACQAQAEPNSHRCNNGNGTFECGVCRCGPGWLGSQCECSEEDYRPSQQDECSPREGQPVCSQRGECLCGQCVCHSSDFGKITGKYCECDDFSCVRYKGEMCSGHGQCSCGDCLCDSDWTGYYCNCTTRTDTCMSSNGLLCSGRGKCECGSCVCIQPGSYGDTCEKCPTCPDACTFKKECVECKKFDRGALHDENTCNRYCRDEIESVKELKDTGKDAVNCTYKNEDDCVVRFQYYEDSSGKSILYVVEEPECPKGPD

Binder | Kd [3] | Kd [4] | Kd [5] | Kd [6] | Kd [7] | Kd [8] | Kd [9] | Kd [10] | Kd [11] | Kd [12] | other results
H240-Kn125/H240-Hl076/L73-k0 (antibody, human IgG1, kappa, also called Hl076/Kn125; parent peptide) heavy 1: QDQLVQSGAEVKKPGASVKVSCKASGFNIKDTYIQWVRQAPGQGLEWMGRIDPLRKQTKYREKFEGRVTITADTSTNTAYMELSSLRSEDTAVYYCVRSGREFDYWGQGTLVTVSSASTKGPSVFPLAPSSKSTSGGTAALGCLVKDYFPEPVTVSWNSGALTSGVHTFPAVLQSSGLYSLSSVVTVPSSSLGTQTYICNVNHKPSNTKVDKKVEPKSCDKTHTCPPCPAPEYQWGPMVFLFPPKPKDTLMISRTPEVTCVVVDVSDEEPEVKFNWYVDGVEVHNAKTKPREEQYNATYRVVSVLTVLHQDWLNGKEYKCKVSNKALPAPIEKTISKAKGQPREPQVCTLPPSRDELTKNQVSLWCLVKGFYPSDIAVEWESNGQPENNYKTTPPVLDSDGSFFLYSKLTVDKSRWQQGNVFSCSVMHEALHNHYTQKSLSLSP heavy 2: QDQLVQSGAEVKKPGASVKVSCKASGFNIKDTYIQWVRQAPGQGLEWMGRIDPLRKQTKYREKFEGRVTITADTSTNTAYMELSSLRSEDTAVYYCVRSGREFDYWGQGTLVTVSSASTKGPSVFPLAPSSKSTSGGTAALGCLVKDYFPEPVTVSWNSGALTSGVHTFPAVLQSSGLYSLSSVVTVPSSSLGTQTYICNVNHKPSNTKVDKKVEPKSCDKTHTCPPCPAPELLGGPSVFLFPPKPKDTLMISRTPEVTCVVVDVSHEEPEVKFNWYVDGVEVHNAKTKPREEQYNSTYRVVSVLTVLHQDWLNGKEYKCKVSNDALPMPIEETISKAKGQPREPQVYTLPPSRCELTKNQVSLSCAVKGFYPSDIAVEWESNGQPENNYKTTPPVLDSDGSFFLVSKLTVDKSRWQQGNVFSCSVMHEALHNHYTQKSLSLSP light: DIQMTQSPSSLSASVGDRVTITCRASQDIHKYIAWYQQKPGQAPRLLIQYTSTLQPGVPSRFSGSGSGTDYTFTISSLQPEDIATYYCLQYEQLRTFGGGTKVEIKRTVAAPSVFIFPPSDEQLKSGTASVVCLLNNFYPREAKVQWKVDNALQSGNSQESVTEQDSKDSTYSLSSTLTLSKADYEKHKVYACEVTHQGLSSPVTKSFNRGEC |  |  |  |  |  |  |  |  |  |  | binding result [1]: no binding (tested: 100 µg/mL)
H240-G1d/L73-k0 (antibody, human IgG1, kappa, anti-epiregulin IgG1; also called H240-G1d/H240-G1d/L73-k0; naturally occurring IgG1) heavy: not shown light: DIQMTQSPSSLSASVGDRVTITCRASQDIHKYIAWYQQKPGQAPRLLIQYTSTLQPGVPSRFSGSGSGTDYTFTISSLQPEDIATYYCLQYEQLRTFGGGTKVEIKRTVAAPSVFIFPPSDEQLKSGTASVVCLLNNFYPREAKVQWKVDNALQSGNSQESVTEQDSKDSTYSLSSTLTLSKADYEKHKVYACEVTHQGLSSPVTKSFNRGEC | 660 nM | 310 nM | 880 nM | 0.23 nM | 1400 nM | 660 nM | 310 nM | 880 nM | 0.23 nM | 1400 nM | Kd [2]: 6000 nM
H240-afucosyl_G1d/L73-k0 (antibody, human IgG1, kappa, afucosylated (fucose-deficient sugar chain), afucosylated form of the anti-epiregulin IgG1 H240-G1d/L73-k0; also called afucosylated antibody) heavy: not shown light: DIQMTQSPSSLSASVGDRVTITCRASQDIHKYIAWYQQKPGQAPRLLIQYTSTLQPGVPSRFSGSGSGTDYTFTISSLQPEDIATYYCLQYEQLRTFGGGTKVEIKRTVAAPSVFIFPPSDEQLKSGTASVVCLLNNFYPREAKVQWKVDNALQSGNSQESVTEQDSKDSTYSLSSTLTLSKADYEKHKVYACEVTHQGLSSPVTKSFNRGEC | 780 nM | 6.9 nM | 490 nM | 0.43 nM | 78 nM | 780 nM | 6.9 nM | 490 nM | 0.43 nM | 78 nM | Kd [13]: 2600 nM; Kd [14]: 2600 nM
GpH7-A57/GpH7-B78/GpL16-k0 (antibody, human IgG1, kappa, Called homodimerized: S239D, A330L, I332E in both H chains) heavy 1: QVQLVQSGAEVKKPGASVTVSCKASGYTFTDYEMHWIRQPPGEGLEWIGAIDPKTGDTAYSESFQDRVTLTADKSTSTAYMELSSLTSEDTAVYYCTRFYSYTYWGQGTLVTVSSASTKGPSVFPLAPSSKSTSGGTAALGCLVKDYFPEPVTVSWNSGALTSGVHTFPAVLQSSGLYSLSSVVTVPSSSLGTQTYICNVNHKPSNTKVDKKVEPKSCDKTHTCPPCPAPELLGGPDVFLFPPKPKDTLMISRTPEVTCVVVDVSHEDPEVKFNWYVDGVEVHNAKTKPREEQYNSTYRVVSVLTVLHQDWLNGKEYKCKVSNKALPLPEEKTISKAKGQPREPQVYTLPPSRKELTKNQVSLTCLVKGFYPSDIAVEWESNGQPENNYKTTPPVLDSDGSFFLYSKLTVDKSRWQQGNVFSCSVMHEALHNRYTQKSLSLSP heavy 2: QVQLVQSGAEVKKPGASVTVSCKASGYTFTDYEMHWIRQPPGEGLEWIGAIDPKTGDTAYSESFQDRVTLTADKSTSTAYMELSSLTSEDTAVYYCTRFYSYTYWGQGTLVTVSSASTKGPSVFPLAPSSKSTSGGTAALGCLVKDYFPEPVTVSWNSGALTSGVHTFPAVLQSSGLYSLSSVVTVPSSSLGTQTYICNVNHKPSNTKVDKKVEPKSCDKTHTCPPCPAPELLGGPDVFLFPPKPKDTLMISRTPEVTCVVVDVSHEDPEVKFNWYVDGVEVHNAKTKPREEQYNSTYRVVSVLTVLHQDWLNGKEYKCKVSNKALPLPEEKTISKAKGQPREPQVYTLPPSRDELTKNQVSLTCLVKGFYPSDIAVEWESNGQPENNYKTTPPVLDSDGSFFLYSKLTVDKSRWQQGNVFSCSVMHEALHNHYTQESLSLSP light: DIVMTQSPLSLPVTPGEPASISCQASESLVHSNRNTYLHWYLQKPGQSPQLLIYKVSNRFSGVPDRFSGSGSGTDFTLKISRVEAEDVGVYYCSQNTHVPPTFGQGTKVEIERTVAAPSVFIFPPSDEQLKSGTASVVCLLNNFYPREAKVQWKVDNALQSGNSQESVTEQDSKDSTYSLSSTLTLSKADYEKHKVYACEVTHQGLSSPVTKSFNRGEC |  |  |  |  |  |  |  |  |  |  | fold FcγRIIIa-binding activity against the corresponding heterodimerized antibody (GpH7-A5/GpH7-B78/GpL16-k0) [15]: ~9 times
GpH7-TA7/GpH7-B78/GpL16-k0 (antibody, human IgG1, kappa, L234Y, G236W, S298A in one H chain and S239D, A330L, I332E in the other) heavy 1: QVQLVQSGAEVKKPGASVTVSCKASGYTFTDYEMHWIRQPPGEGLEWIGAIDPKTGDTAYSESFQDRVTLTADKSTSTAYMELSSLTSEDTAVYYCTRFYSYTYWGQGTLVTVSSASTKGPSVFPLAPSSKSTSGGTAALGCLVKDYFPEPVTVSWNSGALTSGVHTFPAVLQSSGLYSLSSVVTVPSSSLGTQTYICNVNHKPSNTKVDKKVEPKSCDKTHTCPPCPAPEYLWGPSVFLFPPKPKDTLMISRTPEVTCVVVDVSHEDPEVKFNWYVDGVEVHNAKTKPREEQYNATYRVVSVLTVLHQDWLNGKEYKCKVSNKALPAPIEKTISKAKGQPREPQVYTLPPSRKELTKNQVSLTCLVKGFYPSDIAVEWESNGQPENNYKTTPPVLDSDGSFFLYSKLTVDKSRWQQGNVFSCSVMHEALHNRYTQKSLSLSP heavy 2: QVQLVQSGAEVKKPGASVTVSCKASGYTFTDYEMHWIRQPPGEGLEWIGAIDPKTGDTAYSESFQDRVTLTADKSTSTAYMELSSLTSEDTAVYYCTRFYSYTYWGQGTLVTVSSASTKGPSVFPLAPSSKSTSGGTAALGCLVKDYFPEPVTVSWNSGALTSGVHTFPAVLQSSGLYSLSSVVTVPSSSLGTQTYICNVNHKPSNTKVDKKVEPKSCDKTHTCPPCPAPELLGGPDVFLFPPKPKDTLMISRTPEVTCVVVDVSHEDPEVKFNWYVDGVEVHNAKTKPREEQYNSTYRVVSVLTVLHQDWLNGKEYKCKVSNKALPLPEEKTISKAKGQPREPQVYTLPPSRDELTKNQVSLTCLVKGFYPSDIAVEWESNGQPENNYKTTPPVLDSDGSFFLYSKLTVDKSRWQQGNVFSCSVMHEALHNHYTQESLSLSP light: DIVMTQSPLSLPVTPGEPASISCQASESLVHSNRNTYLHWYLQKPGQSPQLLIYKVSNRFSGVPDRFSGSGSGTDFTLKISRVEAEDVGVYYCSQNTHVPPTFGQGTKVEIERTVAAPSVFIFPPSDEQLKSGTASVVCLLNNFYPREAKVQWKVDNALQSGNSQESVTEQDSKDSTYSLSSTLTLSKADYEKHKVYACEVTHQGLSSPVTKSFNRGEC |  |  |  |  |  |  |  |  |  |  | fold FcγRIIIa-binding activity against GpH7-A5/GpH7-B78/GpL16-k0 [15]: ≥ 10 times
